B1: Sliding clamp, P04525 (parent)
chain: MKLSKDTTALLKNFATINSGIMLKSGQFIMTRAVNGTTYAEANISDVIDFDVAIYDLNGFLGILSLVNDDAEISQSEDGNIKIADARSTIFWPAADPSTVVAPNKPIPFPVASAVTEIKAEDLQQLLRVSRGLQIDTIAITVKEGKIVINGFNKVEDSALTRVKYSLTLGDYDGENTFNFIINMANMKMQPGNYKLLLWAKGKQGAAKFEGEHANYVVALEADSTHDF

Variants of: B1
Settings: Enterobacteria phage T4; pH 7.4; 25 °C; Urea; CD; Sodium Phosphate Buffer; structure 1CZD; whole UniProt chain shown
With MKLSKDTTALLKNFATINSGIMLKSGQFIMTRAVNGTTYAEANISDVIDFDVAIYDLNGFLGILSLVNDDAEISQSEDGNIKIADARSTIFFPAADPSTVVAPNKPIPFPVASAVTEIKAEDLQQLLRVSRGLQIDTIAITVKEGKIVINGFNKVEDSALTRVKYSLTLGDYDGENTFNFIINMANMKMQPGNYKLLLWAKGKQGAAKFEGEHANYVVALEADSTHDF [W92F] the “denaturant midpoint (higher = more stable)” value was 2 M.

Same assay, conditions: Enterobacteria phage T4; pH 7.4; 25 °C; Urea; CD; Sodium Phosphate Buffer; transition: 3; structure 1CZD; whole UniProt chain shown
With MKLSKDTTALLKNFATINSGIMLKSGQFIMTRAVNGTTYAEANISDVIDFDVAIYDLNGFLGILSLVNDDAEISQSEDGNIKIADARSTIFWPAADPSTVVAPNKPIPFPVASAVTEIKAEDLQQLLRVSRGLQIDTIAITVKEGKIVINGFNKVEDSALTRVKYSLTLGDYDGENTFNFIINMANMKMQPGNYKLLLFAKGKQGAAKFEGEHANYVVALEADSTHDF [W199F] the “denaturant midpoint (higher = more stable)” value was 1.9 M.
